167 variants from the RNAGym collection of RNA variant scans (doi:10.7554/elife.80360) can be followed below.

To fix the notation:
B1: Hairpin Ribozyme (parent)
chain: GUCCUCUUUCACGUGCGCGUGAAAGAGAGAAGUGAACCAGAGAAACACACGUUGUGGUAUAUUACCUGGUA

This data set covers variants of B1. The data set can be described thus: self-cleavage, relative activity (ratio to wild type); higher = more cleavage; co-transcriptional.
As to A11G G25A, the self-cleavage is 0.43.

In the case of C10G A49G, the self-cleavage was determined as 0.343.

In the case of C10U C18U, the self-cleavage worked out at 0.95.

On to C10U C18A, for which the self-cleavage was 0.956.

As to A11G A45G, the self-cleavage is 0.271.

As to A11G A45C, the self-cleavage was 0.124.

Turning to A11G A35G, the self-cleavage stood at 0.764.

On to A11C A35G, for which the self-cleavage amounted to 0.837.

As for A11C A35U, the self-cleavage turned out to be 0.643.

Take A11U G17C: the self-cleavage came to 0.566.

With A11U A22U, the self-cleavage worked out at 0.501.

Take A11U A22C: the self-cleavage was found to be 0.363.

For the variant A11U G42A, the self-cleavage was found to be 0.136.

For C10A C12A, the self-cleavage came to 0.476.

Regarding A11C G42U, the self-cleavage came out at 0.214.

Take A11G A36C: the self-cleavage came out at 0.508.

On to C10U U58C, for which the self-cleavage was 0.771.

Take C10U U58G: the self-cleavage came out at 0.557.

With C10G G13C, the self-cleavage came to 0.401.

Regarding A11C G21U, the self-cleavage came to 0.799.

As for C10G U55A, the self-cleavage stood at 0.316.

C10G U55G: the self-cleavage was found to be 0.195.

With A11G A64G, the self-cleavage is 0.507.

On to A11G A64C, for which the self-cleavage is 0.114.

With A11G A64U, the self-cleavage was 0.111.

With C10G C46U, the self-cleavage came out at 0.0874.

A11C A30C: the self-cleavage turned out to be 0.147.

A11C A30U: the self-cleavage came to 0.177.

C10A G25C: the self-cleavage amounted to 0.227.

With C10A G25U, the self-cleavage amounted to 0.356.

As to C10A G25A, the self-cleavage was determined as 0.187.

In the case of A11U A45U, the self-cleavage is 0.255.

On to A11G G15C, for which the self-cleavage stood at 0.859.

For C10A G56U, the self-cleavage is 0.148.

Take C10A G34U: the self-cleavage is 1.01.

In the case of C10A G34A, the self-cleavage worked out at 0.92.

As to C10A A61G, the self-cleavage worked out at 0.183.

Consider C10G G40C, for which the self-cleavage was found to be 0.122.

With C10G G15U, the self-cleavage is 0.851.

Regarding C10G G15A, the self-cleavage was 0.624.

A11U G51C: the self-cleavage stood at 0.706.

As for C10U U53A, the self-cleavage stood at 0.733.

On to C10U U53G, for which the self-cleavage amounted to 0.725.

For the variant C10G G51C, the self-cleavage turned out to be 0.585.

Turning to A11U G15C, the self-cleavage was determined as 0.85.

Consider A11U G15A, for which the self-cleavage stood at 0.849.

Regarding C10A G51C, the self-cleavage was found to be 0.566.

For A11C C38G, the self-cleavage turned out to be 0.0848.

For the variant C10U A49U, the self-cleavage is 0.0687.

Turning to C10U U62A, the self-cleavage worked out at 0.234.

Regarding C10G U33C, the self-cleavage came out at 0.0987.

Consider C10G U33G, for which the self-cleavage stood at 0.25.

In the case of A11C A22C, the self-cleavage is 0.803.

For C10U G54U, the self-cleavage amounted to 0.452.

For the variant C10U G54A, the self-cleavage was determined as 0.561.

In the case of C10U U52G, the self-cleavage was 0.564.

Regarding C10U U52C, the self-cleavage was determined as 0.949.

As to A11U U14G, the self-cleavage is 0.536.

On to A11U U14C, for which the self-cleavage amounted to 0.964.

On to A11G A49C, for which the self-cleavage amounted to 0.124.

As for C10G A23C, the self-cleavage was determined as 0.416.

For C10A G42A, the self-cleavage amounted to 0.149.

Regarding A11G G19C, the self-cleavage turned out to be 0.784.

As to A11G G17A, the self-cleavage came to 1.01.

Take C10U A11C: the self-cleavage came out at 0.696.

Consider A11U A49U, for which the self-cleavage came to 0.251.

With A11U A49C, the self-cleavage came out at 0.24.

On to A11G G51U, for which the self-cleavage stood at 0.713.

Regarding A11G G51A, the self-cleavage turned out to be 0.93.

As to C10G U63C, the self-cleavage amounted to 0.104.

For C10G U63G, the self-cleavage came to 0.113.

On to C10G U63A, for which the self-cleavage worked out at 0.158.

On to A11C A26G, for which the self-cleavage came to 0.645.

In the case of A11U C38U, the self-cleavage was determined as 0.47.

As to A11U A24G, the self-cleavage amounted to 0.813.

For the variant A11G A41G, the self-cleavage stood at 1.01.

Turning to C10G G17A, the self-cleavage was 0.676.

For the variant A11C G15U, the self-cleavage was 0.996.

As for A11U G54C, the self-cleavage was 0.333.

A11G C16A: the self-cleavage was determined as 0.825.

For A11G C16U, the self-cleavage is 0.902.

Take C10A G27C: the self-cleavage was 0.159.

For A11C A71G, the self-cleavage turned out to be 0.902.

For the variant A11C A71U, the self-cleavage came to 0.747.

As to A11C A71C, the self-cleavage was found to be 1.15.

Regarding C10A U52G, the self-cleavage was 0.731.

On to C10A C66A, for which the self-cleavage was 0.283.

Take C10A C66U: the self-cleavage stood at 0.312.

For C10A C66G, the self-cleavage was 0.158.

As for C10G C38G, the self-cleavage is 0.133.

Consider C10G C38U, for which the self-cleavage came to 0.435.

Turning to C10A U58A, the self-cleavage was determined as 0.485.

Regarding A11U C66G, the self-cleavage is 0.0569.

For A11G A59G, the self-cleavage was 0.199.

C10G U20G: the self-cleavage is 0.561.

In the case of C10G U20C, the self-cleavage stood at 0.647.

On to A11C G25A, for which the self-cleavage came out at 0.504.

Turning to A11C G25C, the self-cleavage worked out at 0.457.

Consider A11U C16U, for which the self-cleavage amounted to 1.02.

C10G U62G: the self-cleavage worked out at 0.138.

For the variant A11G G13U, the self-cleavage was determined as 0.662.

On to A11G G13C, for which the self-cleavage is 0.567.

With A11U A47U, the self-cleavage is 0.266.

As for A11C A44C, the self-cleavage came out at 0.0983.

For the variant A11C A44G, the self-cleavage was determined as 0.197.

For A11C G13U, the self-cleavage is 0.717.

Regarding A11C G13C, the self-cleavage is 0.503.

For the variant C10U C12A, the self-cleavage was determined as 0.574.

Regarding C10A U70C, the self-cleavage was found to be 0.616.

As to C10A U70G, the self-cleavage stood at 0.767.

Regarding A11C G19A, the self-cleavage stood at 0.741.

As for C10U G13A, the self-cleavage stood at 0.662.

Regarding A11U G21C, the self-cleavage is 0.549.

For A11U A36G, the self-cleavage came to 0.7.

In the case of A11C A61C, the self-cleavage turned out to be 0.24.

Turning to A11U A71G, the self-cleavage was 0.977.

For the variant A11U G13C, the self-cleavage is 0.737.

For A11U G13U, the self-cleavage came to 0.54.

As to A11C G57U, the self-cleavage stood at 0.323.

A11G C18G: the self-cleavage turned out to be 0.816.

With C10G C18G, the self-cleavage was 0.621.

With C10G C18A, the self-cleavage worked out at 0.907.

Regarding A11G A30G, the self-cleavage was determined as 0.269.

Turning to A11G A30C, the self-cleavage was found to be 0.146.

As for A11G G56C, the self-cleavage was determined as 0.128.

As for A11G G56A, the self-cleavage is 0.229.

As to C10G C48G, the self-cleavage came to 0.0825.

With A11C U14A, the self-cleavage is 0.533.

Consider C10U A36C, for which the self-cleavage worked out at 0.662.

For C10U A36G, the self-cleavage is 0.648.

With C10U G27C, the self-cleavage was 0.0988.

Take C10U G27U: the self-cleavage was 0.225.

On to C10U G32C, for which the self-cleavage is 0.17.

Regarding A11U A61U, the self-cleavage came out at 0.247.

Turning to A11U A44C, the self-cleavage is 0.216.

A11C A43C: the self-cleavage worked out at 0.

Turning to A11C A43G, the self-cleavage came to 0.0792.

With C10G U58A, the self-cleavage turned out to be 0.591.

Turning to A11G U67C, the self-cleavage was 0.214.

As to C10U A43G, the self-cleavage is 0.113.

As to C10U A43C, the self-cleavage came to 0.189.

With A11G G27U, the self-cleavage was 0.248.

Consider A11G G27A, for which the self-cleavage was 0.353.

Turning to C10U G69U, the self-cleavage worked out at 0.217.

Turning to C10U G69A, the self-cleavage was determined as 0.405.

As for A11G A23C, the self-cleavage was 0.596.

On to A11G A23U, for which the self-cleavage was found to be 0.93.

For C10U A41G, the self-cleavage stood at 0.765.

In the case of A11C G54A, the self-cleavage came out at 0.508.

For the variant A11C G17U, the self-cleavage amounted to 0.745.

In the case of A11C G17C, the self-cleavage stood at 0.745.

With C10U G25C, the self-cleavage stood at 0.487.

Turning to A11U A23U, the self-cleavage came to 0.728.

Take A11C U53C: the self-cleavage worked out at 0.681.

For C10U A31C, the self-cleavage came to 0.135.

Consider A11U C46G, for which the self-cleavage was 0.0538.

As to A11U C46A, the self-cleavage worked out at 0.16.

As for A11G A47U, the self-cleavage came to 0.131.

Take A11G A47G: the self-cleavage is 0.0539.

Take A11C A47U: the self-cleavage was 0.251.

With A11C A41G, the self-cleavage was found to be 0.701.

On to A11C C50G, for which the self-cleavage was 0.321.

For the variant C10U G57C, the self-cleavage was found to be 0.187.

Take C10U A39C: the self-cleavage was determined as 0.458.

C10U A44C: the self-cleavage was 0.135.

Turning to A11C G27U, the self-cleavage was 0.365.

For the variant C10G C37U, the self-cleavage came out at 0.379.
